{"source": "patent US20170260508A1", "binders": {"B1": {"name": "Angptl2-FLAG, full-length human Angptl2 secreted from transfected 293T cells, Q9UKU9 23-493 (ligand, not shown: small tags and cut ends)", "chain": "QEDGFEGTEEGSPREFIYLNRYKRAGESQDKCTYTFIVPQQRVTGAICVNSKEPEVLLENRVHKQELELLNNELLKQKRQIETLQQLVEVDGGIVSEVKLLRKESRNMNSRVTQLYMQLLHEIIRKRDNALELSQLENRILNQTADMLQLASKYKDLEHKYQHLATLAHNQSEIIAQLEEHCQRVPSARPVPQPPPAAPPRVYQPPTYNRIINQISTNEIQSDQNLKVLPPPLPTMPTLTSLPSSTDKPSGPWRDCLQALEDGHDTSSIYLVKPENTNRLMQVWCDQRHDPGGWTVIQRRLDGSVNFFRNWETYKQGFGNIDGEYWLGLENIYWLTNQGNYKLLVTMEDWSGRKVFAEYASFRLEPESEYYKLRLGRYHGNAGDSFTWHNGKQFTTLDRDHDVYTGNCAHYQKGGWWYNACAHSNLNGVWYRGGHYRSRYQDGVYWAEFRGGSYSLKKVVMMIRPNPNTFH"}}, "target": "chimeric LILRB2-PILRβ receptor (aa 24-458 of hLILRB2) on mouse T cell hybridoma NFAT-GFP reporter cells (human), Q8N423", "sequence (Q8N423 other isoform, or with tags, fused parts or gaps mutant limits assumed, form in doubt)": "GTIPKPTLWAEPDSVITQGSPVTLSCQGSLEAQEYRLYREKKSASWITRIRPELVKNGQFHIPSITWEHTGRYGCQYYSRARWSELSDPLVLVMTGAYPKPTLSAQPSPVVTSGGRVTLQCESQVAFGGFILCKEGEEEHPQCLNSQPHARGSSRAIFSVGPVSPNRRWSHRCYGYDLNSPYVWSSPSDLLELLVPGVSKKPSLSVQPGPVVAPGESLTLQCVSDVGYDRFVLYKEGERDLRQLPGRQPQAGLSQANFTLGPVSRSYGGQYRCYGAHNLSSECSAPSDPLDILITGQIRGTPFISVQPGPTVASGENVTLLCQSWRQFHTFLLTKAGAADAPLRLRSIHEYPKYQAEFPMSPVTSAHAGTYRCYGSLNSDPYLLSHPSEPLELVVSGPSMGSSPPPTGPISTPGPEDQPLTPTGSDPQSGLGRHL", "experiment": "cell-based or functional assay", "data": [{"binder": "B1", "values": [{"measurement": "GFP expression of LILRB2 reporter cells after 24 h with Angptl2 conditioned medium (2 µg/ml); control: mock medium", "result": 18.9, "unit": "%"}]}]}
